These results are taken from the supplement of paper PMC9112550, “Optimization of the antimicrobial peptide Bac7 by deep mutational scanning” (BMC Biology, 2022).

This series deals with Escherichia coli TOP10. Put plainly: shrunken log2 fold change of peptide-encoding DNA abundance (4.5 h post-induction vs induction); higher = less antimicrobial activity (less host growth inhibition). The following applies: time post-induction: 4.5 h; library: site-saturation at positions 5, 18, 19, 20.
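Note: peptides expressed intracellularly from a pBAD plasmid library in pooled LB shake-flask culture, induced with 0.3% L-arabinose, DNA abundance read by NGS, three biological replicates, DESeq2 with apeglm shrinkage.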

On to RRIRWRPPRLPRPRPRPTFDPRP, for which the “shrunken log2 fold change” value was found to be 0.273.
Regarding RRIRFRPPRLPRPRPRPSGAPRP, the “shrunken log2 fold change” value was 0.103.
For the sequence RRIRRRPPRLPRPRPRPVKSPRP, the “shrunken log2 fold change” value is 0.625.
Next, RRIRMRPPRLPRPRPRPNTSPRP: -0.0142; RRIRTRPPRLPRPRPRPASLPRP: 0.105.
Next, RRIRKRPPRLPRPRPRPKCTPRP: 0.0297.
With RRIRNRPPRLPRPRPRPYAMPRP, the “shrunken log2 fold change” value was found to be 0.0743.
As for RRIRHRPPRLPRPRPRPMCMPRP, the “shrunken log2 fold change” value was 0.201.
Regarding RRIRCRPPRLPRPRPRPALRPRP, the “shrunken log2 fold change” value turned out to be 0.457.
For RRIRQRPPRLPRPRPRPKQCPRP, the “shrunken log2 fold change” value is -0.288.
On to RRIRSRPPRLPRPRPRPEQFPRP, for which the “shrunken log2 fold change” value turned out to be 0.0895.
On to RRIRWRPPRLPRPRPRPFDYPRP, for which the “shrunken log2 fold change” value was -0.554.
Next, RRIRFRPPRLPRPRPRPHVHPRP: -0.0448.
Consider RRIRQRPPRLPRPRPRPASRPRP, for which the “shrunken log2 fold change” value is -0.124.
Consider RRIRERPPRLPRPRPRPEEWPRP, for which the “shrunken log2 fold change” value was -0.0919.
For RRIRDRPPRLPRPRPRPLQMPRP, the “shrunken log2 fold change” value is 0.167.
Next, RRIRNRPPRLPRPRPRPCLRPRP: -0.0159; RRIRARPPRLPRPRPRPRTTPRP: 0.755; RRIRLRPPRLPRPRPRPVNQPRP: -0.138.
Turning to RRIRARPPRLPRPRPRPHTQPRP, the “shrunken log2 fold change” value was -0.0761.
On to RRIRSRPPRLPRPRPRPRPVPRP, for which the “shrunken log2 fold change” value came out at 1.01.
As to RRIRNRPPRLPRPRPRPPWMPRP, the “shrunken log2 fold change” value is -0.00995.
In the case of RRIRQRPPRLPRPRPRPRCTPRP, the “shrunken log2 fold change” value was -0.172.
Take RRIRRRPPRLPRPRPRPSDYPRP: the “shrunken log2 fold change” value is -0.185.
Take RRIRKRPPRLPRPRPRPYGWPRP: the “shrunken log2 fold change” value is 0.05.
As to RRIRVRPPRLPRPRPRPGNMPRP, the “shrunken log2 fold change” value is 0.151.
As for RRIRWRPPRLPRPRPRPQKNPRP, the “shrunken log2 fold change” value was found to be 0.0916.
As for RRIRYRPPRLPRPRPRPENIPRP, the figure is -0.105; as for RRIRQRPPRLPRPRPRPCSMPRP, -0.273.
With RRIRNRPPRLPRPRPRPPPGPRP, the “shrunken log2 fold change” value amounted to 0.863.
Regarding RRIRRRPPRLPRPRPRPYRNPRP, the “shrunken log2 fold change” value stood at 0.0114.
As to RRIRDRPPRLPRPRPRPVLNPRP, the “shrunken log2 fold change” value is -0.165.
As for RRIRKRPPRLPRPRPRPGVIPRP, the figure is 0.251; as for RRIRWRPPRLPRPRPRPYVVPRP, -0.256; as for RRIRDRPPRLPRPRPRPSHEPRP, -0.0403.
For the sequence RRIRHRPPRLPRPRPRPGWEPRP, the “shrunken log2 fold change” value is 0.274.
Turning to RRIRNRPPRLPRPRPRPSWCPRP, the “shrunken log2 fold change” value was -0.0906.
Regarding RRIRVRPPRLPRPRPRPKKIPRP, the “shrunken log2 fold change” value worked out at 0.0852.
With RRIRVRPPRLPRPRPRPEAMPRP, the “shrunken log2 fold change” value is -0.0277.
As for RRIRHRPPRLPRPRPRPGYWPRP, the figure is -0.151.
Next, RRIRMRPPRLPRPRPRPASTPRP: 0.323; RRIRRRPPRLPRPRPRPRHMPRP: -0.0552.
For the sequence RRIRARPPRLPRPRPRPVSPPRP, the “shrunken log2 fold change” value amounted to 0.664.
For RRIRMRPPRLPRPRPRPLRPPRP, the “shrunken log2 fold change” value was found to be 1.76.
On to RRIRSRPPRLPRPRPRPFRPPRP, for which the “shrunken log2 fold change” value is -0.249.
Take RRIRYRPPRLPRPRPRPRWIPRP: the “shrunken log2 fold change” value was -0.553.
For the sequence RRIRKRPPRLPRPRPRPRMVPRP, the “shrunken log2 fold change” value is 0.168.
Regarding RRIRFRPPRLPRPRPRPCTHPRP, the “shrunken log2 fold change” value was -0.842.
On to RRIRKRPPRLPRPRPRPYVQPRP, for which the “shrunken log2 fold change” value was -0.332.
RRIRDRPPRLPRPRPRPVMYPRP: the “shrunken log2 fold change” value was -0.166.
Take RRIRVRPPRLPRPRPRPLKLPRP: the “shrunken log2 fold change” value was -0.337.
As for RRIRIRPPRLPRPRPRPGYAPRP, the figure is -0.192.
RRIRLRPPRLPRPRPRPFPNPRP: the “shrunken log2 fold change” value was 0.203.
As to RRIRARPPRLPRPRPRPIIDPRP, the “shrunken log2 fold change” value came to 0.216.
Take RRIRDRPPRLPRPRPRPQMYPRP: the “shrunken log2 fold change” value was -0.127.
Regarding RRIRQRPPRLPRPRPRPQTTPRP, the “shrunken log2 fold change” value was -0.0245.
Turning to RRIRGRPPRLPRPRPRPQTNPRP, the “shrunken log2 fold change” value stood at 0.433.
As for RRIRGRPPRLPRPRPRPWCLPRP, the “shrunken log2 fold change” value is -0.262.
Next, RRIRWRPPRLPRPRPRPYQRPRP: -0.85; RRIRVRPPRLPRPRPRPNGHPRP: -0.0787; RRIRKRPPRLPRPRPRPPMKPRP: 0.135.
As for RRIRRRPPRLPRPRPRPLCKPRP, the figure is 0.167; as for RRIRWRPPRLPRPRPRPSDGPRP, -0.785.
Take RRIRLRPPRLPRPRPRPIMYPRP: the “shrunken log2 fold change” value was -0.16.
Next, RRIRMRPPRLPRPRPRPFFTPRP: -0.054.
Next, RRIRMRPPRLPRPRPRPLLAPRP: 2.1.
Take RRIRVRPPRLPRPRPRPLGTPRP: the “shrunken log2 fold change” value is 0.188.
Next, RRIRNRPPRLPRPRPRPSSEPRP: -0.214; RRIRQRPPRLPRPRPRPNNFPRP: -0.17; RRIRPRPPRLPRPRPRPVNAPRP: 0.138.
Next, RRIRKRPPRLPRPRPRPAQHPRP: 0.65; RRIRFRPPRLPRPRPRPQQSPRP: -0.0219; RRIRLRPPRLPRPRPRPNWWPRP: 0.117.
On to RRIRDRPPRLPRPRPRPIIHPRP, for which the “shrunken log2 fold change” value is -0.483.
In the case of RRIRSRPPRLPRPRPRPSSEPRP, the “shrunken log2 fold change” value amounted to 0.0612.
Turning to RRIRQRPPRLPRPRPRPRCEPRP, the “shrunken log2 fold change” value was -0.128.
Next, RRIRGRPPRLPRPRPRPHYTPRP: -0.379.
On to RRIRWRPPRLPRPRPRPTSPPRP, for which the “shrunken log2 fold change” value came to 0.217.
Take RRIRGRPPRLPRPRPRPIDSPRP: the “shrunken log2 fold change” value came out at 0.00395.
As to RRIRTRPPRLPRPRPRPDYKPRP, the “shrunken log2 fold change” value is -0.303.
As for RRIRSRPPRLPRPRPRPKHKPRP, the figure is -0.0831; as for RRIRYRPPRLPRPRPRPKQAPRP, 0.0341.
As for RRIRIRPPRLPRPRPRPLMNPRP, the “shrunken log2 fold change” value was -0.94.
Regarding RRIRSRPPRLPRPRPRPLQCPRP, the “shrunken log2 fold change” value was found to be 0.116.
With RRIRIRPPRLPRPRPRPGLCPRP, the “shrunken log2 fold change” value amounted to 0.108.
As for RRIRPRPPRLPRPRPRPAACPRP, the “shrunken log2 fold change” value stood at 0.103.
Next, RRIRIRPPRLPRPRPRPDAIPRP: 0.0309; RRIRPRPPRLPRPRPRPQPQPRP: 0.26.
Next, RRIRQRPPRLPRPRPRPHNGPRP: -0.072; RRIRRRPPRLPRPRPRPDWWPRP: -0.0208.
With RRIRARPPRLPRPRPRPQRIPRP, the “shrunken log2 fold change” value came out at 0.177.
